± gives the standard deviation of the averaged measurements.
system: ATP; assay: switch fluorescence ratio, 500 uM ATP over buffer (Cy3 cluster intensity, sum of 5 cycles each) (fold (ratio)); higher = stronger signal-on switching upon ATP binding; sequences stand for … in TCGTCGGCAGCGTCAGATGTGTATAAGAGACAGTTTTTTTTTTTTTTTTTTTTTTTTT…TC; settings: aptamer strand: ATP DNA aptamer (quencher-CACCTGGGGGAGTATTGCGGAGGAAGG + anchor), 100 nM annealed; ATP concentration: 500 uM
How it was run: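 For every switch-domain sequence, the fluorescence ratio is the mean of per-cluster values, each being summed target-cycle Cy3 intensity over summed buffer-cycle Cy3 intensity. Clusters outside 100-1000 RFU were excluded. On a modified Illumina MiSeq flow-cell, the Cy3-labelled switching-strand clusters were annealed to 100 nM quencher-labelled ATP aptamer, imaged in selection buffer and then after 15 min with 500 uM ATP at 22 °C. Five such cycles were run, with NaOH stripping and re-annealing between them.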
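Note: ATP exposure 15 min at 22 °C before imaging.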

Sequence | switch fluorescence ratio
TGAAGTTTTG | 1.02 ± 0.027
TGAATAGGAG | 1.011 ± 0.0027
TGAATAGGGA | 0.982 ± 0.05
TGAATATAGT | 1.004 ± 0.0042
TGAATATATG | 1.02 ± 0.032
TGAATCGGGA | 0.99 ± 0.011
TGAATCTGTT | 1.02 ± 0.05
TGAATGAAGG | 1.01 ± 0.058
TGAATGATAG | 0.983 ± 0.026
TGAATGGGGC | 0.953 ± 0.042
TGAATTTTAC | 1.03 ± 0.04
TGACACGGTT | 0.9814 ± 0.0058
TGACATAGGT | 1.02 ± 0.019
TGACATGTAG | 1.01 ± 0.052
TGACATTATA | 1.01 ± 0.032
TGACATTTGT | 0.965 ± 0.048
TGACCCTATA | 1.06 ± 0.028
TGACCCTTAG | 0.987 ± 0.025
TGACCCTTCT | 1.14 ± 0.05
TGACCGAAGT | 1.043 ± 0.0028
TGACCGGGGG | 1.0571 ± 5.2e-05
TGACCTCGTG | 0.995 ± 0.039
TGACGAGGTG | 0.9816 ± 0.0051
TGACGCAAAG | 1.63 ± 0.065
TGACGCATAG | 1.7 ± 0.12

Sequence | switch fluorescence ratio
TGACGCCGGG | 0.98 ± 0.018
TGACGCGTTT | 1.02 ± 0.041
TGACGGCTGG | 1.026 ± 0.0044
TGACGGGAGG | 0.991 ± 0.04
TGACGGGCAC | 1.17 ± 0.036
TGACGGGGGA | 0.986 ± 0.021
TGACGGGGTT | 0.992 ± 0.026
TGACGGTGTG | 0.973 ± 0.02
TGACGTTAAG | 1.03 ± 0.086
TGACGTTATG | 1 ± 0.053
TGACTACATG | 1.04 ± 0.013
TGACTACCAT | 1.07 ± 0.08
TGACTCCAGG | 1.23 ± 0.023
TGACTTAGTG | 1.03 ± 0.016
TGACTTATGG | 0.983 ± 0.08
TGACTTGGCG | 1.026 ± 0.0087
TGACTTGTGC | 0.976 ± 0.037
TGAGAAATTA | 1.05 ± 0.014
TGAGAAGTTG | 1.01 ± 0.066
TGAGAATGGG | 0.995 ± 0.044
TGAGAATTTA | 0.9935 ± 0.0019
TGAGACTAGT | 0.989 ± 0.023
TGAGAGGAGT | 0.9911 ± 0.0013
TGAGAGTTAA | 0.961 ± 0.036
TGAGAGTTTG | 0.987 ± 0.017

Sequence | switch fluorescence ratio
TGAGATACAT | 1.13 ± 0.1
TGAGATGGGG | 0.99 ± 0.021
TGAGATTCCT | 1.09 ± 0.034
TGAGCATGGG | 1 ± 0.029
TGAGCCGGGT | 1.02 ± 0.033
TGAGCCTCGG | 0.965 ± 0.032
TGAGCGGGAA | 1.01 ± 0.02
TGAGCGGGTA | 1.024 ± 0.0052
TGAGCTGCGT | 1.01 ± 0.022
TGAGGAACCT | 1.77 ± 0.098
TGAGGATGGA | 0.975 ± 0.044
TGAGGATGTT | 0.9852 ± 0.0089
TGAGGCAGGG | 1.037 ± 0.0042
TGAGGCGCGG | 0.97 ± 0.025
TGAGGCTGTT | 1 ± 0.031
TGAGGGAGGC | 1.06 ± 0.06
TGAGGGATGC | 0.968 ± 0.029
TGAGGGCGTG | 1.01 ± 0.014
TGAGGGGCGA | 0.989 ± 0.028
TGAGGGGGAG | 1.01 ± 0.04
TGAGGGGGGA | 1 ± 0.036
TGAGGGTCCT | 1.02 ± 0.01
TGAGGGTTTT | 0.997 ± 0.02
TGAGGTACCG | 1.0235 ± 0.00091
TGAGGTCAAA | 1.07 ± 0.041

Sequence | switch fluorescence ratio
TGAGGTTTGT | 0.98 ± 0.028
TGAGGTTTTC | 1.02 ± 0.048
TGAGGTTTTT | 1.28 ± 0.59
TGAGTACCGG | 1.08 ± 0.1
TGAGTATATA | 1.02 ± 0.014
TGAGTATGGG | 0.973 ± 0.019
TGAGTCATAC | 1.05 ± 0.033
TGAGTCGAGC | 1.014 ± 0.0066
TGAGTCTAGG | 0.9979 ± 0.0026
TGAGTCTGCT | 0.998 ± 0.087
TGAGTGAGGT | 0.959 ± 0.016
TGAGTGCCGG | 1.18 ± 0.25
TGAGTGGCTC | 0.9793 ± 0.0053
TGAGTGTCTG | 0.966 ± 0.019
TGAGTGTGCT | 0.972 ± 0.011
TGAGTGTTTT | 0.997 ± 0.027
TGAGTTAGAT | 1 ± 0.011
TGAGTTCGAA | 1 ± 0.028
TGAGTTTGGC | 0.9862 ± 0.0013
TGATAAAGGT | 0.997 ± 0.015
TGATAATAGA | 0.9953 ± 0.0011
TGATAATATT | 0.992 ± 0.011
TGATAATCGG | 0.997 ± 0.036
TGATACAAGC | 1.05 ± 0.032
TGATACCTGT | 0.975 ± 0.068

— the supplement of paper PMC10126150
